In data set [1] the target is T1, BRD Baz2B (Homo sapiens, UniProt Q9UIF8 2060-2164).
T1 sequence: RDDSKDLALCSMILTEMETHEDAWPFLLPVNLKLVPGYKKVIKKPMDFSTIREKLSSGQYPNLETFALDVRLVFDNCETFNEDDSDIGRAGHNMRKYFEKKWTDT
The data set can be described thus: EMSA; up to 112 uM, one pot; EMSA: 20 mM HEPES pH 7.5, 30 mM KCl, 1 mM EDTA, 10 mM (NH4)2SO4, 1 mM DTT, 4 C, 10 nM probe; MST: same plus 0.1 ug/ml BSA, 5 nM probe, 25 C; GST-AT-hook and bromodomain EMSA as in cited refs. Particulars: protein: recombinant, tags: His6. (Mobility shift assays separate free from complexed probe on a gel.)

The target in data set [2] is T2, BRD Brg1 (UniProt P51532 1453-1564). The data set can be described thus: EMSA; one pot with triplex and duplex; EMSA: 20 mM HEPES pH 7.5, 30 mM KCl, 1 mM EDTA, 10 mM (NH4)2SO4, 1 mM DTT, 4 C, 10 nM probe; MST: same plus 0.1 ug/ml BSA, 5 nM probe, 25 C; GST-AT-hook and bromodomain EMSA as in cited refs. The conditions noted are these: protein: recombinant; tags: His6.
T2 sequence (P51532 1453-1564): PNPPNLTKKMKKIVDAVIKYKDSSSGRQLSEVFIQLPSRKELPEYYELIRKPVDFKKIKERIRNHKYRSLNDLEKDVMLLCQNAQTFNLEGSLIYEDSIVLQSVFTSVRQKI

In data set [3] the target is T2, BRD Brg1. As to the kind of experiment: EMSA; one pot with duplex and TFO; EMSA: 20 mM HEPES pH 7.5, 30 mM KCl, 1 mM EDTA, 10 mM (NH4)2SO4, 1 mM DTT, 4 C, 10 nM probe; MST: same plus 0.1 ug/ml BSA, 5 nM probe, 25 C; GST-AT-hook and bromodomain EMSA as in cited refs. Particulars: protein: recombinant; tags: His6; triplex, third strand TFO.
Data set [4] has as its target T3, TAM-AT1-AT2 Baz2B R765E (Homo sapiens, UniProt Q9UIF8 721-884, R765E).
T3 sequence: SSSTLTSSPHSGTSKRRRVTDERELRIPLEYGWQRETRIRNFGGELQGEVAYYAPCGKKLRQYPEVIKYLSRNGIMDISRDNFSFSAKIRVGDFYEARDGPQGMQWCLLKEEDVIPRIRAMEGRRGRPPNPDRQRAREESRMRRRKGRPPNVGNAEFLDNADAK
The data set can be described thus: EMSA; EMSA: 20 mM HEPES pH 7.5, 30 mM KCl, 1 mM EDTA, 10 mM (NH4)2SO4, 1 mM DTT, 4 C, 10 nM probe; MST: same plus 0.1 ug/ml BSA, 5 nM probe, 25 C; GST-AT-hook and bromodomain EMSA as in cited refs. Particulars: protein: recombinant; tags: His6; blunt.

In data set [5] the target is T4, TAM-AT1-AT2 Baz2B Q767A (Homo sapiens, UniProt Q9UIF8 721-884, Q767A).
T4 sequence: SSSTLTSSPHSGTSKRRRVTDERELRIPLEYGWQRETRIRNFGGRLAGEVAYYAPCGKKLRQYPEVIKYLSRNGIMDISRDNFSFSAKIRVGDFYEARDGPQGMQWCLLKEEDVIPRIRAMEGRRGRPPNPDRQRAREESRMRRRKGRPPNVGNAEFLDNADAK
The data set is described as above. The conditions noted are these: protein: recombinant; tags: His6; blunt.

For data set [6], the target named is T5, TAM-AT1-AT2 Baz2B R781E (Homo sapiens, UniProt Q9UIF8 721-884, R781E).
T5 sequence: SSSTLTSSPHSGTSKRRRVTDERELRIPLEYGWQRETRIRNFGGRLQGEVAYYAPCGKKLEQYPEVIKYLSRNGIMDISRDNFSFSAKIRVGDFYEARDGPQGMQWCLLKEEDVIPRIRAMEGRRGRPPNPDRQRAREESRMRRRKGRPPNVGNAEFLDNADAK
The data set is described as above. The conditions noted are these: protein: recombinant; tags: His6; blunt.

Data set [7] concerns the target T6, TAM-AT1-AT2 Baz2B (Homo sapiens, UniProt Q9UIF8 721-884).
T6 sequence: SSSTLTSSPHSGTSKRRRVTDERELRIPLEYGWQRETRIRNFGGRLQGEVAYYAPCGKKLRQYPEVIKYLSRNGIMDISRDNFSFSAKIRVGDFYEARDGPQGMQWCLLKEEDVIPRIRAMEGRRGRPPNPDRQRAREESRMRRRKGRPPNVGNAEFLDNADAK
The data set is described as above. Particulars: protein: recombinant; tags: His6; blunt.

The target in data set [8] is T7, TAM-AT1-AT2 Baz2B R837E (Homo sapiens, UniProt Q9UIF8 721-884, R837E).
T7 sequence: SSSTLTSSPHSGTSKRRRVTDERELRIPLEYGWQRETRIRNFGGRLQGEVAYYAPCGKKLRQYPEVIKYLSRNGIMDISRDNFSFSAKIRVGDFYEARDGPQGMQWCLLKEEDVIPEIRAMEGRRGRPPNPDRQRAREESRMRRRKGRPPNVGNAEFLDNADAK
The description is as above. Particulars: protein: recombinant; tags: His6; blunt.

In data set [9] the target is T8, TAM-AT1-AT2 Baz2B L766A (Homo sapiens, UniProt Q9UIF8 721-884, L766A).
T8 sequence: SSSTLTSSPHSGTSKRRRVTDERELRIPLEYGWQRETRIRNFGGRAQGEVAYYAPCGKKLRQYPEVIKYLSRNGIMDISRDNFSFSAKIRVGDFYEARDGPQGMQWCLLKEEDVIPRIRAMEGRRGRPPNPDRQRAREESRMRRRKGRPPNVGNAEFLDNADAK
The data set is described as above. Particulars: protein: recombinant; tags: His6; blunt.

Data set [10] concerns the target T9, TAM Baz2B (Homo sapiens, UniProt Q9UIF8 721-843).
T9 sequence: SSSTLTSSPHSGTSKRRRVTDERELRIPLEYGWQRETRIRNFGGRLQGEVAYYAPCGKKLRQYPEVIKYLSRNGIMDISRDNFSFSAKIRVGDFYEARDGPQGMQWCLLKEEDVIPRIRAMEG
The description is as above. The conditions noted are these: protein: recombinant; tags: His6; blunt.

Data set [11] concerns the target T10, TAM-AT1-AT2 Baz2B R760E (Homo sapiens, UniProt Q9UIF8 721-884, R760E).
T10 sequence: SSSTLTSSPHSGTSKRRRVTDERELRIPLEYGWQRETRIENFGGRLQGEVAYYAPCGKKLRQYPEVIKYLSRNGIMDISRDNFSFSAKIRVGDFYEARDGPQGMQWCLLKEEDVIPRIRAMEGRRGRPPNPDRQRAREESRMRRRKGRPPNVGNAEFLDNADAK
Described as above. The conditions noted are these: protein: recombinant; tags: His6; blunt.

Data set [12] addresses T6, TAM-AT1-AT2 Baz2B. The data set can be described thus: EMSA; mutant series; EMSA: 20 mM HEPES pH 7.5, 30 mM KCl, 1 mM EDTA, 10 mM (NH4)2SO4, 1 mM DTT, 4 C, 10 nM probe; MST: same plus 0.1 ug/ml BSA, 5 nM probe, 25 C; GST-AT-hook and bromodomain EMSA as in cited refs. The conditions noted are these: protein: recombinant; tags: His6; blunt.
The target of data set [13] is T11, GST-AT1-AT2 Baz2A (UniProt Q91YE5 641-674).
T11 chain: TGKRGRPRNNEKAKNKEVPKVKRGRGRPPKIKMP
The data set can be described thus: EMSA; 1.25 uM DNA, 3.6 or 14.4 uM protein; EMSA: 20 mM HEPES pH 7.5, 30 mM KCl, 1 mM EDTA, 10 mM (NH4)2SO4, 1 mM DTT, 4 C, 10 nM probe; MST: same plus 0.1 ug/ml BSA, 5 nM probe, 25 C; GST-AT-hook and bromodomain EMSA as in cited refs. The conditions noted are these: protein: recombinant; tags: GST; label: none (SybrSafe); blunt.

Data set [14] has as its target T2, BRD Brg1. As to the kind of experiment: EMSA; one pot with triplex and TFO; EMSA: 20 mM HEPES pH 7.5, 30 mM KCl, 1 mM EDTA, 10 mM (NH4)2SO4, 1 mM DTT, 4 C, 10 nM probe; MST: same plus 0.1 ug/ml BSA, 5 nM probe, 25 C; GST-AT-hook and bromodomain EMSA as in cited refs. Particulars: protein: recombinant; tags: His6; blunt.

The Kd is the equilibrium constant for the complex coming apart.

B1: TFO #5 (29 nt ssDNA) (ssDNA)
DNA: GGAGGAAAAAAGAAAAAAAAAAAAAAAGA
As for B1, the binding result in data set [1] and in data set [2] was “no binding” each time.

B2: DNA triplex En3_D + TFO #5 (structured_DNA)
DNA 1: TCTTTTTTTTTTTTTTTCTTTTTTCCTCC
DNA 2: GGAGGAAAAAAGAAAAAAAAAAAAAAAGA
DNA 3: GGAGGAAAAAAGAAAAAAAAAAAAAAAGA
Consider B2, for which the binding result in data set [1] (triplex, third strand TFO) is given as “no binding”; in [3], “binds”.

B3: 45 bp dsDNA FLP015/FLP016 (dsDNA)
DNA 1: ATCAGTTCTCCGGGTTGTCAGGTCGACCAGTTGTTCCTTTGAGGT
DNA 2: ACCTCAAAGGAACAACTGGTCGACCTGACAACCCGGAGAACTGAT
In the case of B3, the equilibrium dissociation constant (Kd) in data set [4] was found to be 30.8 ± 6.9 nM; in data set [5], 440 ± 256 nM; in data set [6] it was 232 ± 101 nM; in [7], 82.2 nM; in data set [8], 108 ± 9.3 nM; in [9] it was 98.1 ± 29.5 nM. Further, the Kd was determined as 468 nM in [10], 93.6 ± 38.2 nM in data set [11] and 116 ± 50.9 nM in data set [12].

B4: rDNA enhancer (En dsDNA) (dsDNA)
DNA 1: TGGATCTTTTTTTTTTTTTTTCTTTTTCCTCCA
DNA 2: TGGAGGAAAAAGAAAAAAAAAAAAAAAGATCCA
For B4, the binding result in [13] is “binds”.

B5: En3_D 29 bp dsDNA (dsDNA)
DNA 1: TCTTTTTTTTTTTTTTTCTTTTTTCCTCC
DNA 2: GGAGGAAAAAAGAAAAAAAAAAAAAAAGA
Regarding B5, the binding result in [1] (blunt) was “no binding”; in data set [14], “binds”.

The record behind these values is publication PMC10783490, “Biochemical and cellular insights into the Baz2B protein, a non-catalytic subunit of the chromatin remodeling complex” (Nucleic Acids Research, 2023).
